The record followed here is publication doi:10.1101/283192, “Disrupted structure and aberrant function of CHIP mediates the loss of motor and cognitive function in preclinical models of cerebellar CHIPopathy” (bioRxiv, 2018).

The data set deals with the molecule itself. Briefly: SEC-MALS; GE Superdex 200 column, Wyatt DAWN HELEOS-II and T-Rex refractometer; 100 µl of 0.5 mg/ml of each sample loaded.

Positions count from the first letter of the chain named. In names and notes the source's numbering stands.

As usually defined, the stoichiometry N is the number of molecules, sites or subunits per partner or assembly.

B1: CHIP-T246M, His-tagged recombinant (natural protein, human, UniProt Q9UNE7 1-303, looked up)
chain: MKGKEEKEGGARLGAGGGSPEKSPSAQELKEQGNRLFVGRKYPEAAACYGRAITRNPLVAVYYTNRALCYLKMQQHEQALADCRRALELDGQSVKAHFFLGQCQLEMESYDEAIANLQRAYSLAKEQRLNFGDDIPSALRIAKKKRWNSIEERRIHQESELHSYLSRLIAAERERELEECQRNHEGDEDDSHVRAQQACIEAKHDKYMADMDELFSQVDEKRKKRDIPDYLCGKISFELMREPCIMPSGITYDRKDIEEHLQRVGHFDPVTRSPLTQEQLIPNLAMKEVIDAFISENGWVEDY
notes: CHIP (STUB1), human, full-length protein with the SCAR16 patient mutation T246M; T246M is a mutation found in patients (p.T246M); also called T246M CHIP; source: E. coli BL21(DE3), purified (HisTrap HP); copies: 10-12
On to B1, for which the “stoichiometry N” value was 10 to 12.

B2: CHIP-H260Q, His-tagged recombinant (natural protein, human, UniProt Q9UNE7 1-303, looked up)
chain: B1 chain with M246T, H260Q
notes: CHIP (STUB1), human, full-length protein with the synthetic mutation H260Q; source: E. coli BL21(DE3), purified (HisTrap HP)
On to B2, for which the binding result was “binds”.
